Experimental data reported in paper PMC8669763.

Target: HLA-B*51:01 (human | human (endogenous in 721.221))

Chain of KIR3DL1 (P43629 22-444): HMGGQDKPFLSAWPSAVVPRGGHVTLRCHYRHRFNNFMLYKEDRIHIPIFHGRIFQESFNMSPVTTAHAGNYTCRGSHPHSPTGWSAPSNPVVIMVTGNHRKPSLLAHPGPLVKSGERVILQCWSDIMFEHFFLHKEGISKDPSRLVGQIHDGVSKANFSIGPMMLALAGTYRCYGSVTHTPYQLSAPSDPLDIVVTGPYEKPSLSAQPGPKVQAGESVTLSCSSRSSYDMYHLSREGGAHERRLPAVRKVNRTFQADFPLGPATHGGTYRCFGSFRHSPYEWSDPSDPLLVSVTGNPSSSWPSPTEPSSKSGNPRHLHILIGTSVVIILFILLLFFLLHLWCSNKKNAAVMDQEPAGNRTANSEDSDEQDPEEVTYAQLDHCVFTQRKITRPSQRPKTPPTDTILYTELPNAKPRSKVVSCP

degranulation: mean frequency of CD107a+ cells in the KIR3DL1 single positive NK subset after co-culture (1:1, 3 hours) with 221-B*51:01-shERAP1 (% CD107a+ cells): 25.8
Substance: KIR3DL1 (from UniProt P43629 22-444) (receptor)
